The target of assay [1] is T1, human CD3 on Jurkat cells (human, UniProt P09693 23-182; P04234 22-171; P07766 23-207).
T1 construct: GenBank NP_000064.1, NP_000723.1, NP_000724.1
Briefly: flow cytometry on Jurkat cells. The method, then:
To quantitate CD3 binding, 2.5E5 Jurkat cells were used for each condition. A 2× stock of the cells was made by resuspending the cells to 5E6/mL by placing in 50 μL of PBS with 2% FBS. Next, the cells were diluted with an equal volume of 2× stock of the test bispecific binding molecule. The cells and antibody were co-incubated on ice for 20 min. The cells were then washed 3 times with 300 μL of FACS buffer and were resuspended in 100 μL of goat anti-human Fc-PE conjugate antibody (Invitrogen cat. #12499882) at 1:500 dilution and incubated on ice with reduced light for 20 min. The cells were then washed 3 times with 300 μL of FACS buffer and fixed with 2% paraformaldehyde for 10 min at 25° C. The cells were washed 2 times with 300 μL of FACS buffer and analyzed on a Miltenyi MACSQuant Analyzer.

Assay [2] addresses T2, soluble biotinylated human ROR1 extracellular domain (human, UniProt Q01973 30-406, biotinylated with EZ-Link Sulfo-NHS-LC-Biotin at a 1:5 molar ratio).
T2 construct: Acro Biosystems cat; whole entry named; also called b-ROR1; soluble b-ROR1
Nature of the assay: ELISA, captured construct, biotinylated ROR1 titrated. The method, then: To measure the binding of bispecific constructs to soluble ROR1, a 96-well Costar-3366 plate was coated with 50 μL/well of 2 μg/mL goat anti-human kappa (Southern Biotech cat. #2060-01) in PBS overnight at 4° C. The plate was rinsed once with PBS-T, blocked with 100 μL/well 5% M-P for 1 h at 25° C., rinsed once with PBS-T, and 2 μg/mL of the bispecific binding molecule was added and incubated for 1 h at 25° C. The plate was washed three times with PBS-T. Biotinylated ROR1 was diluted serially, 3-fold in 5% M-P and was incubated for 1 h at 25° C. (50 μL/well). The plate was washed three times with PBS-T. To detect the binding of b-ROR1, 50 μL/well Neutravidin-HRP (Pierce cat. #31030) diluted 1:5000 in 1% BSA-PBS was added for 1 h at 25° C. The plate was washed three times with PBS-T, then developed with 50 μL/well 1-Step Ultra TMB-ELISA (Thermo Scientific cat. #34028). The reaction was terminated by the addition of 2 N H₂SO₄ and the A450 was determined using a Spectramax plate reader.
The stronger binding observed with bivalent constructs versus monovalent constructs in cell assays and ELISAs in which the antigen is immobilized is consistent with an avidity effect. To determine if this was the case, binding to soluble monomeric ROR1 was assessed by immobilizing the bispecific binding molecules on a microtiter plate coated with goat anti-human kappa antibody and titrating biotinylated RORL. All bispecific binding molecules were active in this format (FIG. 7), and in most cases, there were no notable differences between monovalent and bivalent constructs.

Assay [3] deals with T3, recombinant human ROR1 extracellular domain (human, UniProt Q01973 30-406).
T3 construct: Bought (Acro Biosystems cat. R01-H522Y); whole entry named; also called ROR1-ECD; immobilized ROR1
Nature of the assay: ELISA, immobilised ROR1 ECD, construct titrated. The method, then:
A 96-well Costar-3366 plate was coated with 50 μL/well of 2 μg/mL […] (Acro Biosystems cat. #R01-H522Y) in PBS overnight at 4° C. The plate was rinsed once with PBS containing 0.05% Tween 20 (PBS-T) and blocked with 100 μL/well of 5% non-fat milk in PBS (5% M-P) for 1 h at 25° C. Antibody samples were serially diluted 2-fold using 5% M-P and were incubated for 1 h at 25° C. (50 μL/well). The plate was washed three times with PBS-T and 50 μL/well anti-human kappa, HRP conjugate (Southern Biotech cat. #2060-05) diluted 10,000-fold in 5% M-P was added for 1 h at 25° C. The plate was washed three times with PBS-T, developed with 50 μL/well 1-Step Ultra TMB-ELISA (Thermo Scientific cat. #34028). The reaction was terminated by the addition of 2 N H₂SO₄ and the A450 was determined using a Spectramax plate reader.
Next, the binding of bispecific binding molecules to ROR was characterized by ELISA using recombinantly-expressed extracellular domain of RORL. ROR was immobilized on a microtiter plate, the bispecific binding molecules were titrated, and binding was quantitated with an anti-human kappa-HRP reagent. Consistent with the cell binding data, all constructs bound ROR1 in a concentration-dependent manner (FIG. 6). Moreover, monovalent ROR1 constructs 13-15 bound less tightly than all but two of the bivalent constructs.

The target in another assay is human ROR1 on cells (human, UniProt Q01973 30-937). Briefly: cell-based or functional assay.

Several values for one entry are separate records, joined by “and”; a condition that tells them apart may be missing. Equal values may be shown once.

T3 sequence (Q01973 30-406 limits assumed): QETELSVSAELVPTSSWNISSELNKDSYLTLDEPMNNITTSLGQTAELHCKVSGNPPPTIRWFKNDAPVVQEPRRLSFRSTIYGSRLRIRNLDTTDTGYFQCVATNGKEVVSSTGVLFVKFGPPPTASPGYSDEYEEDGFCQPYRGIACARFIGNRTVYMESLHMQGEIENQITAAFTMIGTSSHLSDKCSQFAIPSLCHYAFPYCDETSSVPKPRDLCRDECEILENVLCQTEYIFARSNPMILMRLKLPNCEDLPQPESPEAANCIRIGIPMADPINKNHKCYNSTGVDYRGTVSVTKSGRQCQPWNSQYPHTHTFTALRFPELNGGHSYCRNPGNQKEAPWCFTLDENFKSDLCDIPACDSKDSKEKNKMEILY
T2 sequence (Q01973 30-406 limits assumed): as above
Chain of human ROR1 on cells (Q01973 30-937 limits assumed): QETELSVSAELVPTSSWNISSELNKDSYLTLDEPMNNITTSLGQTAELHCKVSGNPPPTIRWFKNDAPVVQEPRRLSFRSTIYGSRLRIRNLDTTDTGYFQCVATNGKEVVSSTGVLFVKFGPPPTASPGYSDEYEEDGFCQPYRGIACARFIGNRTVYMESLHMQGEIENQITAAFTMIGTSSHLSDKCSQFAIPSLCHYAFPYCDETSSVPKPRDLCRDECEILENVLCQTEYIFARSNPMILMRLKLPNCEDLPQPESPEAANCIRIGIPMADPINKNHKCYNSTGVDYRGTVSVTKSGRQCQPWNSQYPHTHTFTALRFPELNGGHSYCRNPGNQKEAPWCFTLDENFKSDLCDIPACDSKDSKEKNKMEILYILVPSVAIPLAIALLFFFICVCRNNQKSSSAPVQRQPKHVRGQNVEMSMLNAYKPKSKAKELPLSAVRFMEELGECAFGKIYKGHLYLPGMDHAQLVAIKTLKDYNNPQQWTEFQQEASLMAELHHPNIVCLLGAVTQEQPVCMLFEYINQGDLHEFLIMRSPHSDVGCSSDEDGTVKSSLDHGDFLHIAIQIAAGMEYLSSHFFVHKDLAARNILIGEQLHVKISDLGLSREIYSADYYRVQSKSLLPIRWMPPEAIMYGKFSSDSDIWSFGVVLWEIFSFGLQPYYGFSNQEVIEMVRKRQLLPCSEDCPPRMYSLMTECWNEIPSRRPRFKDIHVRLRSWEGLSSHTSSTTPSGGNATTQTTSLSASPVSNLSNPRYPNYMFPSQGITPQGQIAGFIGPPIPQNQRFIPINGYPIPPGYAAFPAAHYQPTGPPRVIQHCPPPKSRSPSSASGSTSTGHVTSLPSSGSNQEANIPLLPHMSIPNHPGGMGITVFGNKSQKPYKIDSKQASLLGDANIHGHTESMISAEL
T1 sequence (P09693 23-182 limits assumed, chain 1 of 3): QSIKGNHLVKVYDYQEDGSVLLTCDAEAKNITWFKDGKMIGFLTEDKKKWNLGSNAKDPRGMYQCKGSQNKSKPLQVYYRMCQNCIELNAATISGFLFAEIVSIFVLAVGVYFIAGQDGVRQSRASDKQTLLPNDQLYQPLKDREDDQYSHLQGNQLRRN
T1 sequence (P04234 22-171 limits assumed, chain 2 of 3): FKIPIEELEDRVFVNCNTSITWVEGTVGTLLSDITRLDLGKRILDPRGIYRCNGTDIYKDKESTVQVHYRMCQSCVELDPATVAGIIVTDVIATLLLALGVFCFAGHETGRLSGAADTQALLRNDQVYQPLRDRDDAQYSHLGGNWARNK
T1 sequence (P07766 23-207 limits assumed, chain 3 of 3): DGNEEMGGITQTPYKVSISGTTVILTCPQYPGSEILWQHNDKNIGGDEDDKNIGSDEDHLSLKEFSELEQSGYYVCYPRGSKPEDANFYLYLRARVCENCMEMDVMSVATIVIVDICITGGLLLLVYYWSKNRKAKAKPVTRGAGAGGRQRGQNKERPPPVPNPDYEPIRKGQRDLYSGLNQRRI

B1: Bispecific construct 11 (bispecific antibody, human IgG1, kappa)
heavy: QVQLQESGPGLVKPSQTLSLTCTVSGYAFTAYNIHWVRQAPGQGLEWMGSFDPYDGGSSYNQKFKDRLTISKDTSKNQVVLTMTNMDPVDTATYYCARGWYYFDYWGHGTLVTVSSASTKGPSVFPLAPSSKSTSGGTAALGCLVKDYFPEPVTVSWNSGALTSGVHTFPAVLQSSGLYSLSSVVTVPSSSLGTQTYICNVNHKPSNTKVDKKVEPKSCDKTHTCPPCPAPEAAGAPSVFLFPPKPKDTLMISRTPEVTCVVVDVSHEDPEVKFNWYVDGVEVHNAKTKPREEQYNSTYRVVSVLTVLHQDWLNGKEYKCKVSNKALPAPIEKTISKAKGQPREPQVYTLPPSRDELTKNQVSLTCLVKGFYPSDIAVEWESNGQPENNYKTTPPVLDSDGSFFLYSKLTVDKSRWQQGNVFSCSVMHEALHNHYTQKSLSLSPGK
light: DIVMTQTPLSLPVTPGEPASISCRASKSISKYLAWYQQKPGQAPRLLIYSGSTLQSGIPPRFSGSGYGTDFTLTINNIESEDAAYYFCQQHDESPYTFGEGTKVEIKRTVAAPSVFIFPPSDEQLKSGTASVVCLLNNFYPREAKVQWKVDNALQSGNSQESVTEQDSKDSTYSLSSTLTLSKADYEKHKVYACEVTHQGLSSPVTKSFNRGECGGGGSGGGGSQVQLVQSGAEVKKPGASVKVSCKASGYTFTRYTMHWVRQAPGQCLEWMGYINPSRGYTNYNQKFKDRVTLTTDKSSSTAYMELSSLRSEDTAVYYCARYYDDHYSLDYWGQGTLVTVSSGGGGSGGGGSGGGGSGGGGSDIQMTQSPSSLSASVGDRVTITCSASSSVSYMNWYQQKPGKAPKRLIYDTSKLASGVPSRFSGSGSGTDFTLTISSLQPEDFATYYCQQWSSNPFTFGCGTKLEIK
notes: disulfide-stabilized anti-CD3 scFv Ab9; ROR1 arm Ab1; valency 2/2
Take B1: the binding result in assay [1] was “binds”. The values for the dissociation constant (Kd) in assay [2] and in assay [3] were 0.073 nM and 0.092 nM, respectively.

B2: Bispecific construct 10 (bispecific antibody, human IgG1, kappa)
heavy: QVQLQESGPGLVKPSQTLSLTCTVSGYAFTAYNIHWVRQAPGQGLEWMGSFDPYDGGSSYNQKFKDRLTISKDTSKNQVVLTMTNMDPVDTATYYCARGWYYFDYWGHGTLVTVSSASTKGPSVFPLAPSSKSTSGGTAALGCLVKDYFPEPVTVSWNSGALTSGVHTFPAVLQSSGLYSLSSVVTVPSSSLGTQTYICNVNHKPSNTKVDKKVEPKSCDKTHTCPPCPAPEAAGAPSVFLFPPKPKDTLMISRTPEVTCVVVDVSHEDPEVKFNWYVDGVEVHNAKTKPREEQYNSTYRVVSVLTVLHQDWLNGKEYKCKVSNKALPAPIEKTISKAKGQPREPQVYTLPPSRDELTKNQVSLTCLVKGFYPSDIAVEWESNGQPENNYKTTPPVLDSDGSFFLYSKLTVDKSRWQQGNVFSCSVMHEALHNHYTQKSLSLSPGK
light: DIVMTQTPLSLPVTPGEPASISCRASKSISKYLAWYQQKPGQAPRLLIYSGSTLQSGIPPRFSGSGYGTDFTLTINNIESEDAAYYFCQQHDESPYTFGEGTKVEIKRTVAAPSVFIFPPSDEQLKSGTASVVCLLNNFYPREAKVQWKVDNALQSGNSQESVTEQDSKDSTYSLSSTLTLSKADYEKHKVYACEVTHQGLSSPVTKSFNRGECGGGGSGGGGSQVQLVQSGGGVVQPGRSLRLSCKASGYTFTRYTMHWVRQAPGKCLEWIGYINPSRGYTNYNQKVKDRFTISRDNSKNTLYLQMDSLRAEDTAVYYCARYYDDHYSLDYWGQGTTVTVSSGGGGSGGGGSGGGGSGGGGSDIQMTQSPSSLSASVGDRVTITCSASSSVSYMNWYQQKPGKAPKRWIYDTSKLASGVPSRFSGSGSGTDFTFTISSLQPEDIATYYCQQWSSNPFTFGCGTKLEIK
notes: disulfide-stabilized anti-CD3 scFv Ab8; ROR1 arm Ab1; valency 2/2
Take B2: the binding result in assay [1] is “binds”. Besides, the figures for the Kd in assay [2] and in assay [3] were 0.094 nM and 0.144 nM, respectively.

B3: Bispecific construct 14 (bispecific antibody, human IgG1, kappa)
heavy 1: not shown
heavy 2: QVQLVQSGAEVKKPGASVKVSCKASGYTFTRYTMHWVRQAPGQGLEWMGYINPSRGYTNYNQKFKDRVTLTTDKSSSTAYMELSSLRSEDTAVYYCARYYDDHYSLDYWGQGTLVTVSSGGGGSGGGGSGGGGSGGGGSDIQMTQSPSSLSASVGDRVTITCSASSSVSYMNWYQQKPGKAPKRLIYDTSKLASGVPSRFSGSGSGTDFTLTISSLQPEDFATYYCQQWSSNPFTFGQGTKLEIKEPKSSDKTHTCPPCPAPEAAGAPSVFLFPPKPKDTLMISRTPEVTCVVVDVSHEDPEVKFNWYVDGVEVHNAKTKPREEQYNSTYRVVSVLTVLHQDWLNGKEYKCKVSNKALPAPIEKTISKAKGQPREPQVYTLPPSRDELTKNQVSLSCAVKGFYPSDIAVEWESNGQPENNYKTTPPVLDSDGSFFLVSKLTVDKSRWQQGNVFSCSVMHEALHNHYTQKSLSLSPGK
light: DIVMTQTPLSLPVTPGEPASISCRASKSISKYLAWYQQKPGQAPRLLIYSGSTLQSGIPPRFSGSGYGTDFTLTINNIESEDAAYYFCQQHDESPYTFGEGTKVEIKRTVAAPSVFIFPPSDEQLKSGTASVVCLLNNFYPREAKVQWKVDNALQSGNSQESVTEQDSKDSTYSLSSTLTLSKADYEKHKVYACEVTHQGLSSPVTKSFNRGEC
notes: anti-CD3 scFv Ab9; ROR1 arm Ab1; valency 1/1
As for B3, the binding result in assay [1] is recorded as “binds”. The Kd in assay [2] came to 0.109 nM; in assay [3], 0.408 nM. The “EC50, LDH release, ROR1-transfected MEC” value with human ROR1 on cells was 5 ng/mL and 40 pM. In addition, in the assay with human ROR1 on cells, the “Max. LDH Release, ROR1-transfected MEC” value worked out at 48%.

B4: Bispecific construct 3 (bispecific antibody, human IgG1, kappa)
heavy: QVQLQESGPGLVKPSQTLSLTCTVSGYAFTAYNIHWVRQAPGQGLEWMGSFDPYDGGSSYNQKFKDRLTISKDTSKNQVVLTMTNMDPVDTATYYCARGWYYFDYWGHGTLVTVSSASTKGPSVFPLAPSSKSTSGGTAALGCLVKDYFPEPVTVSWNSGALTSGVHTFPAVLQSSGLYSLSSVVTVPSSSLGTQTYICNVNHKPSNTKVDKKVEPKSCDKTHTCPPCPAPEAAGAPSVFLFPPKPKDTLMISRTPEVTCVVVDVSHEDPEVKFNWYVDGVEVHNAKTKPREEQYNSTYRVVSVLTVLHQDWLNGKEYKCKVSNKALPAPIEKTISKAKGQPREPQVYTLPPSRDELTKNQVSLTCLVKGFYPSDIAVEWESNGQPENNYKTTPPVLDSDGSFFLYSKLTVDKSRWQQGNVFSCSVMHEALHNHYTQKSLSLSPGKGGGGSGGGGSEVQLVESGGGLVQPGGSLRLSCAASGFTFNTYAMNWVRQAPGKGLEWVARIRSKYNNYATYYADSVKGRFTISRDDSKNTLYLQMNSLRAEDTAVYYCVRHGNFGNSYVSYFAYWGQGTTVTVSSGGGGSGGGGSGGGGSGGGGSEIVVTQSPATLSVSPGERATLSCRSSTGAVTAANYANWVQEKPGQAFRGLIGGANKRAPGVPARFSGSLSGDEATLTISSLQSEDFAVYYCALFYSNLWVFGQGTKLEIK
light: DIVMTQTPLSLPVTPGEPASISCRASKSISKYLAWYQQKPGQAPRLLIYSGSTLQSGIPPRFSGSGYGTDFTLTINNIESEDAAYYFCQQHDESPYTFGEGTKVEIKRTVAAPSVFIFPPSDEQLKSGTASVVCLLNNFYPREAKVQWKVDNALQSGNSQESVTEQDSKDSTYSLSSTLTLSKADYEKHKVYACEVTHQGLSSPVTKSFNRGEC
notes: anti-CD3 scFv Ab10 (SP34-based); ROR1 arm Ab1; valency 2/2
For the molecule B4, the binding result in assay [1] is “binds”. For the same molecule, the Kd was 0.147 nM in assay [2] and 0.233 nM in assay [3].

B5: Bispecific construct 6 (bispecific antibody, human IgG1, kappa)
heavy: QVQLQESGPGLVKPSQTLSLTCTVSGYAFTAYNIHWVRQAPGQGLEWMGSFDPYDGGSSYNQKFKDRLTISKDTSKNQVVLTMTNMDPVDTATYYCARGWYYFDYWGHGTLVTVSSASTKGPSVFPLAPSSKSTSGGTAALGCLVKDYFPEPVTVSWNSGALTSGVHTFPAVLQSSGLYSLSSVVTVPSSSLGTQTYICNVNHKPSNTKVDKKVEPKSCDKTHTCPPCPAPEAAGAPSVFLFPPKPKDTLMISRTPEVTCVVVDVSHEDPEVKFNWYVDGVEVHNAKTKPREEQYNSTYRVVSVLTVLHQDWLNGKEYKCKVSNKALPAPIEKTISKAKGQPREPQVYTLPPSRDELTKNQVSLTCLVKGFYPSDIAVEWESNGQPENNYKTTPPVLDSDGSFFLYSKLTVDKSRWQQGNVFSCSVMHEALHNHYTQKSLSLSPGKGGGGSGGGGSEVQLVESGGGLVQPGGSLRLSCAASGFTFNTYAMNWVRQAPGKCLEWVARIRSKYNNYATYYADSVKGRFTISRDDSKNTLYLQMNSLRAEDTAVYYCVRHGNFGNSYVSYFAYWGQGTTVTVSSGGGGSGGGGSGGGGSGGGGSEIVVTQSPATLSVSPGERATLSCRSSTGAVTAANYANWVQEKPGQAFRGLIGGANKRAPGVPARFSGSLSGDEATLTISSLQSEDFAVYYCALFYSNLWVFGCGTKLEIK
light: DIVMTQTPLSLPVTPGEPASISCRASKSISKYLAWYQQKPGQAPRLLIYSGSTLQSGIPPRFSGSGYGTDFTLTINNIESEDAAYYFCQQHDESPYTFGEGTKVEIKRTVAAPSVFIFPPSDEQLKSGTASVVCLLNNFYPREAKVQWKVDNALQSGNSQESVTEQDSKDSTYSLSSTLTLSKADYEKHKVYACEVTHQGLSSPVTKSFNRGEC
notes: disulfide-stabilized anti-CD3 scFv Ab10; ROR1 arm Ab1; valency 2/2
For the molecule B5, in assay [1], the binding result is “binds”. Further, the Kd stood at 0.082 nM in assay [2] and 0.033 nM in assay [3].

B6: Bispecific construct 15 (bispecific antibody, human IgG1, kappa)
heavy 1: not shown
heavy 2: EVQLVESGGGLVQPGGSLRLSCAASGFTFNTYAMNWVRQAPGKGLEWVARIRSKYNNYATYYADSVKGRFTISRDDSKNTLYLQMNSLRAEDTAVYYCVRHGNFGNSYVSYFAYWGQGTTVTVSSGGGGSGGGGSGGGGSGGGGSEIVVTQSPATLSVSPGERATLSCRSSTGAVTAANYANWVQEKPGQAFRGLIGGANKRAPGVPARFSGSLSGDEATLTISSLQSEDFAVYYCALFYSNLWVFGQGTKLEIKEPKSSDKTHTCPPCPAPEAAGAPSVFLFPPKPKDTLMISRTPEVTCVVVDVSHEDPEVKFNWYVDGVEVHNAKTKPREEQYNSTYRVVSVLTVLHQDWLNGKEYKCKVSNKALPAPIEKTISKAKGQPREPQVYTLPPSRDELTKNQVSLSCAVKGFYPSDIAVEWESNGQPENNYKTTPPVLDSDGSFFLVSKLTVDKSRWQQGNVFSCSVMHEALHNHYTQKSLSLSPGK
light: DIVMTQTPLSLPVTPGEPASISCRASKSISKYLAWYQQKPGQAPRLLIYSGSTLQSGIPPRFSGSGYGTDFTLTINNIESEDAAYYFCQQHDESPYTFGEGTKVEIKRTVAAPSVFIFPPSDEQLKSGTASVVCLLNNFYPREAKVQWKVDNALQSGNSQESVTEQDSKDSTYSLSSTLTLSKADYEKHKVYACEVTHQGLSSPVTKSFNRGEC
notes: anti-CD3 scFv Ab10 (SP34-based); ROR1 arm Ab1; valency 1/1
B6: the binding result in assay [1] is on record as “binds”. In addition, the Kd came out at 0.157 nM in assay [2] and 0.301 nM in assay [3].

B7: Bispecific construct 12 (bispecific antibody, human IgG1, kappa)
heavy: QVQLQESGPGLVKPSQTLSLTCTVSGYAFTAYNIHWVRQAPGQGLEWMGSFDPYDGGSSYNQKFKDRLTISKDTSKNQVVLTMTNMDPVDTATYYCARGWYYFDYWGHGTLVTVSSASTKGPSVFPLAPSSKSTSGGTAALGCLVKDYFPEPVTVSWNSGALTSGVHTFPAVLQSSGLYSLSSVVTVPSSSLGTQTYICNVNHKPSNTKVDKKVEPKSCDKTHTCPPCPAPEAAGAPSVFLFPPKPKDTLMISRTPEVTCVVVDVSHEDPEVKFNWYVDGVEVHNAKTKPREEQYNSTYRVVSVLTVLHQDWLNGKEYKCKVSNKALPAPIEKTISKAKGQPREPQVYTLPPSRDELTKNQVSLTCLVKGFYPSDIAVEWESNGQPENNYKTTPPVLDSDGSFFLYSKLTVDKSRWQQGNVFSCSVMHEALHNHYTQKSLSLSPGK
light: DIVMTQTPLSLPVTPGEPASISCRASKSISKYLAWYQQKPGQAPRLLIYSGSTLQSGIPPRFSGSGYGTDFTLTINNIESEDAAYYFCQQHDESPYTFGEGTKVEIKRTVAAPSVFIFPPSDEQLKSGTASVVCLLNNFYPREAKVQWKVDNALQSGNSQESVTEQDSKDSTYSLSSTLTLSKADYEKHKVYACEVTHQGLSSPVTKSFNRGECGGGGSGGGGSEVQLVESGGGLVQPGGSLRLSCAASGFTFNTYAMNWVRQAPGKCLEWVARIRSKYNNYATYYADSVKGRFTISRDDSKNTLYLQMNSLRAEDTAVYYCVRHGNFGNSYVSYFAYWGQGTTVTVSSGGGGSGGGGSGGGGSGGGGSEIVVTQSPATLSVSPGERATLSCRSSTGAVTAANYANWVQEKPGQAFRGLIGGANKRAPGVPARFSGSLSGDEATLTISSLQSEDFAVYYCALFYSNLWVFGCGTKLEIK
notes: as for B5
B7: the binding result in assay [1] is recorded as “binds”. The Kd amounted to 0.086 nM in assay [2] and 0.116 nM in assay [3].

(Values after patent US20220227866A1 (VELOSBIO, published 2022).)
